Test results from US20240116985A1 (published 2024).
Starred links: 1 amine or outer side, 2 acyl side, 3 side chain; linkers in the order of their positions; H or OH if unused. Positions of bridges follow the written chain, without caps; N, C: chain ends. Non-standard residues stand in square brackets, D forms with d. Primed or numbered codes have the meaning given here. B5(4) = 2,2-bis(4-pentenyl)glycine = 2-amino-2-(pent-4-en-1-yl)hept-6-enoic acid (stitching residue), C=CCCCC(CCCC=C)(N[*:1])C(=O)[*:2]; PyrS2 = (S)-3-amino-1-((pent-4-en-1-yloxy)carbonyl)pyrrolidine-3-carboxylic acid, C=CCCCOC(=O)N1CC[C@@](N[*:1])(C(=O)[*:2])C1; RdN = (R)-4-(((allyloxy)carbonyl)(methyl)amino)-2-amino-2-methylbutanoic acid, C=CCOC(=O)N(C)CC[C@@](C)(N[*:1])C(=O)[*:2]; PyrS = (S)-1-((allyloxy)carbonyl)-3-aminopyrrolidine-3-carboxylic acid, C=CCOC(=O)N1CC[C@@](N[*:1])(C(=O)[*:2])C1; B5 = 2-amino-2-(pent-4-en-1-yl)hept-6-enoic acid, C=CCCCC(CCCC=C)(N[*:1])C(=O)[*:2]; Phe(3-COOH) = N[C@@H](Cc1cccc(C(=O)O)c1)C(=O)O; Phe(2-CF3) = N[C@@H](Cc1ccccc1C(F)(F)F)C(=O)O; S7 = C[C@@](CCCCCC=[*:3])(N[*:1])C(=O)[*:2]; Phe(3-OMe) = COc1cccc(C[C@H](N)C(=O)O)c1; Phe(4-F) = N[C@@H](Cc1ccc(F)cc1)C(=O)O; Met(O2) = CS(=O)(=O)CC[C@H](N)C(=O)O; Bta = N[C@@H](Cc1csc2ccccc12)C(=O)O; αAllylPro = C=CC[C@@]1(C(=O)O)CCCN1; tBuAla = CC(C)(C)C[C@H](N)C(=O)O; R8 = C=CCCCCCC[C@@](C)(N)C(=O)O; 3Thi = N[C@@H](Cc1ccsc1)C(=O)O; S8 = C=CCCCCCC[C@](C)(N)C(=O)O; PyrS2(4) = not defined here

Assays:
[1] = target: T1, B-cat-Halo (beta-catenin HaloTag construct expressed in HEK293 cells) (UniProt P35222 1-781); test: cell-based or functional assay
T1 sequence (looked up): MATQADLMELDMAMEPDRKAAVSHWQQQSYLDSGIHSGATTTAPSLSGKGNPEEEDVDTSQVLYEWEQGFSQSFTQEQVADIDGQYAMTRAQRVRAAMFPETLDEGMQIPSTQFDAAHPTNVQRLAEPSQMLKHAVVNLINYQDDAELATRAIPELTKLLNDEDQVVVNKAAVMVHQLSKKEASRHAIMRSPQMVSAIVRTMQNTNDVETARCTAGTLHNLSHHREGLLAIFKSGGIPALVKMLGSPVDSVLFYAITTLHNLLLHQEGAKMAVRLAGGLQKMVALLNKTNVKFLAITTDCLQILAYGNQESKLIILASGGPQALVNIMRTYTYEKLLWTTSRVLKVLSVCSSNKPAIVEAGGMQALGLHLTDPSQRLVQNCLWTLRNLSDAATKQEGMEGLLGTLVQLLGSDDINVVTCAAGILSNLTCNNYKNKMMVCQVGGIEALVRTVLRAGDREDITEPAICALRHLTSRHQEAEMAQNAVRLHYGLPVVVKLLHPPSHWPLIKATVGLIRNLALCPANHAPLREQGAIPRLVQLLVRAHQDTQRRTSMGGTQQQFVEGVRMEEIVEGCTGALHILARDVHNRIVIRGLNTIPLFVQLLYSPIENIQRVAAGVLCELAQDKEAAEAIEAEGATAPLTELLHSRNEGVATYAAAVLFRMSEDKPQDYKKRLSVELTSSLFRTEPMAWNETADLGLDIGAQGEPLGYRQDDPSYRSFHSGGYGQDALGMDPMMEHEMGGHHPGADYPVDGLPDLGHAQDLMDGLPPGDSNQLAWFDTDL

[2] = target: T2, beta-catenin in DLD1 TCF/LEF luciferase reporter cells (UniProt P35222 2-781); test: cell-based or functional assay
T2 sequence (looked up): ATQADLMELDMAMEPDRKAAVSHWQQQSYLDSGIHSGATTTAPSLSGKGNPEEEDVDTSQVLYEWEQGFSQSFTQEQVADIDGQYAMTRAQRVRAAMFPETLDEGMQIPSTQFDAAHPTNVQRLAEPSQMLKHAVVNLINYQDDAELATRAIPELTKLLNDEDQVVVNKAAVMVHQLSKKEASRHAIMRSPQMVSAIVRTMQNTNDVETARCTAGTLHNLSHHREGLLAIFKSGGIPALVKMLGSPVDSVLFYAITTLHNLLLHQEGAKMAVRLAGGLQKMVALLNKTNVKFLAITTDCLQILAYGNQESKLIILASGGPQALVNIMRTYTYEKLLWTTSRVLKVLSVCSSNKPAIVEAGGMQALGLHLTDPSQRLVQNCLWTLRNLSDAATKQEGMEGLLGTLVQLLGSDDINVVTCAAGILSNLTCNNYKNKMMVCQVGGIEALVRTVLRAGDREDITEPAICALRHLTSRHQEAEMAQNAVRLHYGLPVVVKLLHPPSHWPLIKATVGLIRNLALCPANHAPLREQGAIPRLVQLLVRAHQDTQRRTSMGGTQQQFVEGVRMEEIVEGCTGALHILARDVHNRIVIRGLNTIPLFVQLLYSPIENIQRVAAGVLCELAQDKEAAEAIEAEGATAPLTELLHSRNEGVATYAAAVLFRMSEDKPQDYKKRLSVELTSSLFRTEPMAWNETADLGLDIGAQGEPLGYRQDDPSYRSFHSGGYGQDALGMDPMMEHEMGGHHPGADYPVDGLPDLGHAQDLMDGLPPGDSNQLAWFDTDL

[3] = target: T3, full-length beta-Catenin (Uniprot ID P35222) (Homo sapiens (Human), UniProt P35222 2-781); test: fluorescence polarization competition; peptide titrated against 10 nM full-length beta-catenin with 10 nM 5FAM-TCF4(10-53) probe
T3 construct: also called bCat; B-Catenin
T3 sequence: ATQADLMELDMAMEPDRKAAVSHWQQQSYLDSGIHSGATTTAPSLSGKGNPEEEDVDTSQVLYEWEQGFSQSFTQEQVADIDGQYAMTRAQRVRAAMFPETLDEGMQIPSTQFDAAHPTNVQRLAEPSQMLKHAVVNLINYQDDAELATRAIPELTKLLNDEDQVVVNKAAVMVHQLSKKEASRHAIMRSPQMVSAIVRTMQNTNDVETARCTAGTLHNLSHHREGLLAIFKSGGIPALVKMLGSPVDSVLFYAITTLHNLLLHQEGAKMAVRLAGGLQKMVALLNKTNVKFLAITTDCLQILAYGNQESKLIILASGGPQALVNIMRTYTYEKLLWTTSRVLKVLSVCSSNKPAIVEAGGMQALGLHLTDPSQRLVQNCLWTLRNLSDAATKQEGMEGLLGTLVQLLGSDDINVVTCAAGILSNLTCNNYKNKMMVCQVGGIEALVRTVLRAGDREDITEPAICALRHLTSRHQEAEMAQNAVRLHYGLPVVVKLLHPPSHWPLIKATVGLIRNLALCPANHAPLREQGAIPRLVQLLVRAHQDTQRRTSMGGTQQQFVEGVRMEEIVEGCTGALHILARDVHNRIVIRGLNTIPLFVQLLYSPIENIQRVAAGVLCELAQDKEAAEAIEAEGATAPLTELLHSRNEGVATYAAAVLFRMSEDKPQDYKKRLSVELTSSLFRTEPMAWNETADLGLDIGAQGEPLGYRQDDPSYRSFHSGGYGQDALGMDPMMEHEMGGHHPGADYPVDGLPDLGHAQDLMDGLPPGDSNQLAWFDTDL
Method: (§1) The plate was incubated protected from light for 60 minutes at 20° C. prior to read. Reads were performed on a CLARIOstar plate reader (BMG Labtech) in duplicate, and data were fitted to a 1:1 binding model with hill slope using an in-house script. All provided concentrations are final concentrations.

[4] = target: T4, beta-catenin in DLD1 TCF/LEF luciferase reporter cells (UniProt P35222 1-781); test: cell-based or functional assay
T4 sequence (looked up): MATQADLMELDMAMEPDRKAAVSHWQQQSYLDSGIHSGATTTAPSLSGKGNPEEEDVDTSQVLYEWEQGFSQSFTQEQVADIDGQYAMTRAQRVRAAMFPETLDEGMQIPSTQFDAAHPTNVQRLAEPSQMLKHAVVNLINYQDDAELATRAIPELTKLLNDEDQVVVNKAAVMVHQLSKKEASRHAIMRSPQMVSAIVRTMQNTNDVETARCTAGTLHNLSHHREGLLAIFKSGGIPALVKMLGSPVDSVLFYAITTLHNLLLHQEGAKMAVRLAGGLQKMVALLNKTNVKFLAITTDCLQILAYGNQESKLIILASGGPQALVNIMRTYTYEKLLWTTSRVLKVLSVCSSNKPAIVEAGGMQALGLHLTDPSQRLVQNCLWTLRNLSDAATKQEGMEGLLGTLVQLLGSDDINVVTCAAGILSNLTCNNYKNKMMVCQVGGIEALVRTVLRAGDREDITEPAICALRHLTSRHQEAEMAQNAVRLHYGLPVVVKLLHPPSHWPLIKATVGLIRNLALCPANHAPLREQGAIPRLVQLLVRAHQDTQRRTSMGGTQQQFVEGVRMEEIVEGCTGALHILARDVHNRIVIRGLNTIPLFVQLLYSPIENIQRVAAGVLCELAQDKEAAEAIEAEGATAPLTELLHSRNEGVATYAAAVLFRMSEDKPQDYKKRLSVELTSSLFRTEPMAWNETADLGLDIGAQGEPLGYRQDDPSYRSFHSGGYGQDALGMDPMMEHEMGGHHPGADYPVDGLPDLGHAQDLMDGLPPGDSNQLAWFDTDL

[5] = target: T5, B-cat-Halo (beta-catenin HaloTag construct expressed in HEK293 cells) (UniProt P35222 1-781); test: cell-based or functional assay; remark: listed apart in the source
T5 sequence (looked up): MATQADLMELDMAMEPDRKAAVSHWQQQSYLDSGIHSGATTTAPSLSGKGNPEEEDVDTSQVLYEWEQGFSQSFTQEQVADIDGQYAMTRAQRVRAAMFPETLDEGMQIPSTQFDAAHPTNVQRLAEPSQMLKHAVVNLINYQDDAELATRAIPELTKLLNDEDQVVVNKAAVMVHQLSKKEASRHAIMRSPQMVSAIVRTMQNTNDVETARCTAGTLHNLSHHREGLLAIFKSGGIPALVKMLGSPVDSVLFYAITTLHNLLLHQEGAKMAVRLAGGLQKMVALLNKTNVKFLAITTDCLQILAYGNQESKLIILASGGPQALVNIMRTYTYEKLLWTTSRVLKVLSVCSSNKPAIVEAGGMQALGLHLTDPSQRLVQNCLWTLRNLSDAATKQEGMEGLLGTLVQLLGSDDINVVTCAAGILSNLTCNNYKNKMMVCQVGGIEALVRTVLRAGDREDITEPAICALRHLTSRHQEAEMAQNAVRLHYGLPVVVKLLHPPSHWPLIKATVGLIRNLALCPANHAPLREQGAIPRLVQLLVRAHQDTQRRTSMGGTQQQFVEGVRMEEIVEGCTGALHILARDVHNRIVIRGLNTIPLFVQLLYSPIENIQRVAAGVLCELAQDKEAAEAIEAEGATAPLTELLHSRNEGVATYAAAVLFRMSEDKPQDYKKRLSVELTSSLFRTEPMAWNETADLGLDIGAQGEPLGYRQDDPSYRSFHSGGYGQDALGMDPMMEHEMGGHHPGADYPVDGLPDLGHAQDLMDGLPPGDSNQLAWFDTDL

[6] = target: T6, full-length beta-Catenin (Uniprot ID P35222) (Homo sapiens (Human), UniProt P35222 1-781); test: fluorescence polarization competition; peptide titrated against full-length beta-catenin + 5FAM-TCF4(10-53)
T6 construct: also called bCat; B-Catenin
T6 sequence: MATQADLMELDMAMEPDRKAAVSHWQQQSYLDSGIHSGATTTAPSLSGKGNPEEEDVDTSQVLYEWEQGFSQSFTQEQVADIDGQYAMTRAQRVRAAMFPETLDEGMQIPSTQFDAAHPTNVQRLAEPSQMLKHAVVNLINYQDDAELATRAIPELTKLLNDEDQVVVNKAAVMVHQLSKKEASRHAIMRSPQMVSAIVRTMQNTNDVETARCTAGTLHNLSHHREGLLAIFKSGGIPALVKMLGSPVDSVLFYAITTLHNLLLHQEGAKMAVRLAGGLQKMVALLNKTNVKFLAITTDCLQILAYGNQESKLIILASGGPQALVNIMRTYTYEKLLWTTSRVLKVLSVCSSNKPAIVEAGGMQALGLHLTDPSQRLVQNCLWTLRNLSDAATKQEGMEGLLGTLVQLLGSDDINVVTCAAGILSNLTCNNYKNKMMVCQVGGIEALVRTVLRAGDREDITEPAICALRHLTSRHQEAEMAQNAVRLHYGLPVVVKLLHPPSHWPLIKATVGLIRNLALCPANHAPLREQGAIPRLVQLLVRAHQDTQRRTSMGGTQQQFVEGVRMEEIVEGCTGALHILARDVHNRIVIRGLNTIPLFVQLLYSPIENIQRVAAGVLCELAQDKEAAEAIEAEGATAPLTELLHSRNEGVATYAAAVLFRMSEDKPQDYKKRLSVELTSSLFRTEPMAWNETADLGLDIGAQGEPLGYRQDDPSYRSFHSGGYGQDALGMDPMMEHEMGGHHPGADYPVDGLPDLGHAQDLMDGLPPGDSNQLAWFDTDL
Method: as §1

B1: I-2061 (peptide)
peptide: Ac-[αAllylPro]D[tBuAla][B5(4)]D[Phe(3-COOH)]AAFL[PyrS2(4)][3Thi][Bta][Met(O2)]-NH2
modifications: staple 1-4, 4-11; reading uncertain; also: printed as Ac-PL3-Asp-Npg-B5-Asp-3COOHF-Ala-Ala-Phe-Leu-PyrS2-3Thi-BztA-Met2O-NH2
NanoBRET Abs IC50 [1]: 1.9 µM | DLD1 4% Abs IC50 [2]: 1.8 µM

B2: I-78: Ac-Phe-Asp-Ala-R8-Asp-Asp-Ala-Ala-4FF-Val-PyrS-Phe-Trp-Gln-NH2 (stapled peptide) (peptide)
peptide: Ac-FDA[R8]DDAA[Phe(4-F)]V[PyrS]FWQ-NH2
modifications: staple 4-11
IC50 [3]: 5 µM

B3: I-66: Ac-Ala-Asp-Ile-RdN-Asp-Glu-Ala-Ala-Phe-Gln-S7-Phe-Trp-His-NH2 (stapled peptide) (peptide)
peptide: Ac-ADI[RdN]DEAAFQ[S7]FWH-NH2
modifications: staple 4-11
IC50 [3]: 1.09 µM

B4: I-2521 (peptide)
peptide: Ac-[αAllylPro]D[tBuAla][B5(4)]DXAAFL[PyrS2][Phe(2-CF3)][Bta]S-NH2
modifications: staple 1-4, 4-11; not fully specified (residue 6); printed as Ac-PL3-Asp-Npg-B5-Asp-[CH2CChCO2H]TriAzDap-Ala-Ala-Phe-Leu-PyrS2-2F3MeF-BztA-Ser-NH2
DLD1 4% Abs IC50 (uM); TCF/LEF luciferase reporter assay [4]: 3 µM | NanoBRET Abs IC50 (uM); Bcat-Halo / TCF4-Luc in HEK293 cells [5]: 5.6 µM

B5: I-724 (peptide)
peptide: Ac-[αAllylPro]DI[B5]DEAA[Phe(3-OMe)]Q[S8]F[Bta]Q-NH2
modifications: staple 1-4, 4-11
notes: also called Ac-PL3-Asp-Ile-B5-Asp-Glu-Ala-Ala-3OMeF-Gln-S8-Phe-BztA-Gln-NH2
IC50 [6]: 114 nM
